Results: patent publication US20020115066A1, “Viral therapeutics” (priority 1998, published 2002)
Peptide text beside a SMILES is read from it. * marks the point of attachment. Cbz = O=C(OCc1ccccc1)*

B1: pSFV/GB1-141: SFV construct with epitope-tagged GBV-B core, residues 1-141 of the GBV-B polyprotein (protein)
chain: MPVISTQTSPVPAPRTRKNKQTQASYPVSIKTSVERGQRAKRKVQRDARPRNYKIAGIHDGLQTLAQAALPAHGWGRQDPRHKSRNLGILLDYPLGWIGDVTTHTPLVGPLVAGAVVRPVCQIVRLLEDGVNWATGWFGVH
modifications: left off: small tags and cut ends
B2: pSFV/GB1-398: SFV construct with epitope-tagged GBV-B core, residues 1-398 of the GBV-B polyprotein (protein)
chain: MPVISTQTSPVPAPRTRKNKQTQASYPVSIKTSVERGQRAKRKVQRDARPRNYKIAGIHDGLQTLAQAALPAHGWGRQDPRHKSRNLGILLDYPLGWIGDVTTHTPLVGPLVAGAVVRPVCQIVRLLEDGVNWATGWFGVHLFVVCLLSLACPCSGARVTDPDTNTTILTNCCQRNQVIYCSPSTCLHEPGCVICADECWVPANPYISHPSNWTGTDSFLADHIDFVMGALVTCDALDIGELCGACVLVGDWLVRHWLIHIDLNETGTCYLEVPTGIDPGFLGFIGWMAGKVEAVIFLTKLASQVPYAIATMFSSVHYLAVGALIYYASRGKWYQLLLALMLYIEATSGNPIRVPTGCSIAEFCSPLMIPCPCHSYLSENVSEVICYSPKWTRPVTLE
modifications: left off: small tags and cut ends

Tests used:
proteasome = assay: Western blot of core protein after treatment with proteasome inhibitor MG132; type: cell-based, hamster; conditions: cells electroporated with pSFV.1-124, 145-152; MG132 2.5 μM from 4 hours after electroporation, harvested at 16 hours
Procedure: A. Western Blot analysis of extracts prepared from cells which were harvested 16 hours after electroporation following treatment with proteasomal inhibitor MG132. Aliquots of extracts containing the same number of cell equivalents were analyzed with antibody JM122. The samples were from cells electroporated with RNA from the following constructs: lanes 1 and 2, PSFV.1-195; lanes 3 and 4, pSFV.1-124, 145-152; lanes 5 and 6, pSFV.Δ125-144; lanes 7 and 8, pSFV.1-153; lanes 9 and 10, no RNA. Samples in lanes with odd numbers were prepared from cells not treated with MG132. Samples in lanes with even numbers were prepared from cells which had been incubated in the presence of MG132 (final concentration 2.5 μM) from 4 hours after electroporation.
For Western blot analysis, proteins were separated on polyacrylamide gels and transferred to nitrocellulose membrane using standard techniques. The nitrocellulose membrane was blocked in 3% gelatin, 20 mM Tris (pH 7.5), 500 mM NaCl for at least 6 hours at 37° C. prior to incubation with the primary antibody. Incubations with the primary antibody (diluted to 1/500for adipophilin antibody and 1/1000for JM122) were performed in 1% gelatin, 20 mM Tris (pH 7.5), 500 mM NaCl, 0.05% Tween 20 at either room temperature or 37° C. for approximately 3-4 hours. […] Bound antibody was detected by enhanced chemiluminescence.

lipid droplets = assay: Intracellular localization of tagged GBV-B and HCV core proteins (Example 10); type: cell-based, hamster; conditions: BHK cells, epitope tag detected with antibody 9220 or JM122, oil red O
Source text: To express portions of the GBV-B polyprotein, relevant regions were amplified by PCR from a construct pGBB (30). pGBB contains the consensus sequence for an infectious molecular clone of GBV-B (30). Primers for PCR amplification were derived from the viral sequences in pGBB and were used in the following pairs to produce DNA fragments that encoded N-terminal regions of the GBV-B polyprotein: residues 1-141, GBV-B primers 1 and 2; residues 1-194, GBV-B primers 1 and 3; residues 1-398, GBV-B primers 1 and 4. Amplified fragments were introduced initially into plasmid pGEM1 and thereafter into pSFV1 by standard cloning techniques. To permit detection of GBV-B core, an epitope tag (32) was introduced into the coding region immediately following amino acid residue 85 (FIG. 7). […] An oligonucleotide encoding the epitope tag (GBV-B5 in Table 1) was inserted between this XbaI site and a TfiI site (position 708 in the native GBV-B nucleotide sequence). The final SFV constructs that contained tagged versions of GBV-B core were termed pSFV/GB1-141, pSFV/GB1-194 and pSFV/GB1-398. […]
Cells on 13 mm coverslips were fixed for 30 min in 4% paraformaldehyde, 0.1% Triton X-100 (prepared in phosphate-buffered saline) at 4° C. […] Samples were analyzed using a Zeiss LSM confocal microscope.

Molecule | increase in the amount of protein detected by Western blot analysis (proteasome) | intracellular localization relative to lipid droplets (lipid droplets)
CC(C)C[C@@H](C=O)NC(=O)[C@H](CC(C)C)NC(=O)[C@H](CC(C)C)NC(=O)OCc1ccccc1 [MG132] (Cbz-Leu-Leu-Leu-aldehyde) | 4 fold | –
B1 | – | localization of the protein around lipid droplets
B2 | – | staining around lipid droplets
